Source: US20030078373A1 (published 2003)

Columns and labels:
barnase [1] = molecular target: T1, barnase (UniProt P00648 48-157); experiment: derived from the change from EX2 to EX1 amide proton exchange of barnase (NMR)
rhodanese [2] = molecular target: T2, rhodanese (UniProt P00586 2-297); experiment: cell-based or functional assay
T2 sequence: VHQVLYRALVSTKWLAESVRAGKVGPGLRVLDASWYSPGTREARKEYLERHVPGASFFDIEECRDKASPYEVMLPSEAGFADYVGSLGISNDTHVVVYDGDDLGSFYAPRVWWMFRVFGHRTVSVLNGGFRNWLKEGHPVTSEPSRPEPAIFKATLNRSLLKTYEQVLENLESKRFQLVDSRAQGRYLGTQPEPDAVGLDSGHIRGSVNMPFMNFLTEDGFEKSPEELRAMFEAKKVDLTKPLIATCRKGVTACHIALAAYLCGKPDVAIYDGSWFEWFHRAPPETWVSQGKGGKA

cyclophilin A = cyclophilin A (UniProt P62937 1-165); experiment: cell-based or functional assay
barnase [3] = molecular target: T1, barnase; experiment: derived from amide proton exchange of barnase (NMR); reference value for intact GroEL from the literature
rhodanese [4] = molecular target: T2, rhodanese; experiment: estimated from the molar ratio giving maximal refolding yield of rhodanese

T1 sequence (P00648 48-157): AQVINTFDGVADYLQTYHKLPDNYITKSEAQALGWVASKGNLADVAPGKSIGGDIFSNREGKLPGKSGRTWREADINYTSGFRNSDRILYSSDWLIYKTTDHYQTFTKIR

B1: sht-GroEL 191-376 (other)
chain: EGMQFDRGYLSPYFINKPETGAVELESPFILLADKKISNIREMLPVLEAVAKAGKPLLIIAEDVEGEALATLVVNTMRGIVKVAAVKAPGFGDRRKAMLQDIATLTGGTVISEEIGMELEKATLEDLGQAKRVVINKDTTTIIDGVGEEAAIQGRVAQIRQQIEEATSDYDREKLQERVAKLAGGV
B1 was tested, and the koff (barnase [1]) was roughly 2 s⁻¹, the “rhodanese refolding activity after 25 mins” value (rhodanese [2]) was roughly 40% and the “refolding of inactivated cyclophilin A” value (cyclophilin A) was 100%. For the same binder, the “fold of the dissociation rate constant over that from intact GroEL” value (barnase [3]) was less than 5 fold and the Kd (rhodanese [4]) was greater than 100 nM.

B2: sht-GroEL 191-345 (other)
chain: EGMQFDRGYLSPYFINKPETGAVELESPFILLADKKISNIREMLPVLEAVAKAGKPLLIIAEDVEGEALATLVVNTMRGIVKVAAVKAPGFGDRRKAMLQDIATLTGGTVISEEIGMELEKATLEDLGQAKRVVINKDTTTIIDGVGEEAAIQGR
For B2, the rhodanese refolding activity (rhodanese [2]) was roughly 42.5%, the “rhodanese refolding activity above background refolding” value (rhodanese [2]) was roughly 37.5% and the “rhodanese refolding activity at about 25 mins” value (rhodanese [2]) was roughly 50%. For the same binder, the “refolding of inactivated cyclophilin A” value (cyclophilin A) was 100%.
